Residue numbers refer to the chain shown, from its start.
B1: Y-Aib-EGT-αMeF-TSD-4Pal-SI-αMeL-LD-Orn-K((2-[2-(2-Amino-ethoxy)-ethoxy]-acetyl)2-(γ-Glu)-CO-(CH2)12-CO2H)AQ-Aib-E-αMeF-I-(D-Glu)-αMeY-LIEGGK((2-[2-(2-Amino-etho … (peptide)
peptide: YXEGTXTSDXSIXLDXKAQXEXIXXLIEGGKSSGAPPPS
modifications: Aib2, αMeF6, 4Pal10, αMeL13, Orn16, K17(Z1), Aib20, αMeF22, D-Glu24, αMeY25, K31(Z1), C-term NH2; Z1=AEEA2-(γ-Glu)-CO-(CH2)12-CO2H
B2: Y-Aib-EGT-αMeF(2F)-TSDY-Aib-I-αMeL-LD-Orn-K((2-[2-(2-Amino-ethoxy)-ethoxy]-acetyl)2-(γ-Glu)-CO-(CH2)12-CO2H)AQ-Aib-EFI-(D-Glu)-αMeY-LIEGGK((2-[2-(2-Amino-ethoxy … (peptide)
peptide: B1 peptide with X10Y, S11X, X22F
modifications: Aib2, αMeF(2F)6, Aib11, αMeL13, Orn16, K17(Z1), Aib20, D-Glu24, αMeY25, K31(Z1), C-term NH2; Z1=AEEA2-(γ-Glu)-CO-(CH2)12-CO2H
B3: Y-Aib-EGT-αMeF(2F)-TSD-4Pal-SI-αMeL-LD-Orn-K((γ-Glu)-(2-[2-(2-Amino-ethoxy)-ethoxy]-acetyl)-CO-(CH2)12-CO2H)AQ-Aib-EFI-(D-Glu)-αMeY-LIEGGK((γ-Glu)-(2-[2-(2-Amin … (peptide)
peptide: B1 peptide with X22F
modifications: Aib2, αMeF(2F)6, 4Pal10, αMeL13, Orn16, K17(Z1), Aib20, D-Glu24, αMeY25, K31(Z1), C-term NH2; Z1=(γ-Glu)-AEEA-CO-(CH2)12-CO2H
B4: Y-Aib-EGT-αMeF(2F)-TSD-4Pal-SI-αMeL-LD-Orn-K((2-[2-(2-Amino-ethoxy)-ethoxy]-acetyl)-(εK)-(γ-Glu)-CO-(CH2)12-CO2H)AQ-Aib-EFI-(D-Glu)-αMeY-LIEGGK((2-[2-(2-Amino-e … (peptide)
peptide: B1 peptide with X22F
modifications: Aib2, αMeF(2F)6, 4Pal10, αMeL13, Orn16, K17(Z1), Aib20, D-Glu24, αMeY25, K31(Z1), C-term NH2; Z1=AEEA-(εK)-(γ-Glu)-CO-(CH2)12-CO2H
B5: Y-Aib-EGT-αMeF(2F)-TSD-4Pal-SI-αMeL-LD-Orn-K((εK)-(γ-Glu)-(γ-Glu)-CO-(CH2)12-CO2H)AQ-Aib-EFI-(D-Glu)-αMeY-LIEGGK((εK)-(γ-Glu)-(γ-Glu)-CO-(CH2)12-CO2H)SSGAPPPS-N … (peptide)
peptide: B1 peptide with X22F
modifications: Aib2, αMeF(2F)6, 4Pal10, αMeL13, Orn16, K17(Z1), Aib20, D-Glu24, αMeY25, K31(Z1), C-term NH2; Z1=(εK)-(γ-Glu)-(γ-Glu)-CO-(CH2)12-CO2H
B6: Y-Aib-EGT-αMeF(2F)-TSD-4Pal-SI-αMeL-LD-Orn-K((εK)-(εK)-(γ-Glu)-CO-(CH2)12-CO2H)AQ-Aib-EFI-(D-Glu)-αMeY-LIEGGK((εK)-(εK)-(γ-Glu)-CO-(CH2)12-CO2H)SSGAPPPS-NH2 (peptide)
peptide: B1 peptide with X22F
modifications: Aib2, αMeF(2F)6, 4Pal10, αMeL13, Orn16, K17(Z1), Aib20, D-Glu24, αMeY25, K31(Z1), C-term NH2; Z1=(εK)-(εK)-(γ-Glu)-CO-(CH2)12-CO2H
B7: Y-Aib-EGT-αMeF(2F)-TSD-4Pal-SI-αMeL-LD-Orn-K((εK)-(γ-Glu)-CO-(CH2)12-CO2H)AQ-Aib-EFI-(D-Glu)-αMeY-LIEGGK((εK)-(γ-Glu)-CO-(CH2)12-CO2H)SSGAPPPS-NH2 (peptide)
peptide: B1 peptide with X22F
modifications: Aib2, αMeF(2F)6, 4Pal10, αMeL13, Orn16, K17(Z1), Aib20, D-Glu24, αMeY25, K31(Z1), C-term NH2; Z1=(εK)-(γ-Glu)-CO-(CH2)12-CO2H
B8: Y-Aib-EGT-αMeF(2F)-TSDY-aMeS-I-αMeL-LD-Orn-K((2-[2-(2-Amino-ethoxy)-ethoxy]-acetyl)2-(γ-Glu)-CO-(CH2)12-CO2H)AQ-Aib-EFI-(D-Glu)-αMeY-LIEGGK((2-[2-(2-Amino-ethox … (peptide)
peptide: B1 peptide with X10Y, S11X, X22F
modifications: Aib2, αMeF(2F)6, αMeS11, αMeL13, Orn16, K17(Z1), Aib20, D-Glu24, αMeY25, K31(Z1), C-term NH2; Z1=AEEA2-(γ-Glu)-CO-(CH2)12-CO2H
B9: Y-Aib-EGT-αMeF(2F)-TSDK((2-[2-(2-Amino-ethoxy)-ethoxy]-acetyl)3-(γ-Glu)-CO-(CH2)10-CH3)-Aib-I-αMeL-LD-Orn-K((2-[2-(2-Amino-ethoxy)-ethoxy]-acetyl)3-(γ-Glu)-CO-( … (peptide)
peptide: B1 peptide with X10K, S11X, X22F, K31P
modifications: Aib2, αMeF(2F)6, K10(Z1), Aib11, αMeL13, Orn16, K17(Z1), Aib20, D-Glu24, αMeY25, C-term NH2; Z1=AEEA3-(γ-Glu)-CO-(CH2)10-CH3

These binders were tested against T1, human GIP receptor (human, UniProt P48546 22-466) (assay: SPA competition vs [125I]-GIP, hGIPR membranes).
T1 construct: whole, on cells; also called hGIPR; human glucose-dependent insulinotropic polypeptide receptor
T1 sequence (looked up): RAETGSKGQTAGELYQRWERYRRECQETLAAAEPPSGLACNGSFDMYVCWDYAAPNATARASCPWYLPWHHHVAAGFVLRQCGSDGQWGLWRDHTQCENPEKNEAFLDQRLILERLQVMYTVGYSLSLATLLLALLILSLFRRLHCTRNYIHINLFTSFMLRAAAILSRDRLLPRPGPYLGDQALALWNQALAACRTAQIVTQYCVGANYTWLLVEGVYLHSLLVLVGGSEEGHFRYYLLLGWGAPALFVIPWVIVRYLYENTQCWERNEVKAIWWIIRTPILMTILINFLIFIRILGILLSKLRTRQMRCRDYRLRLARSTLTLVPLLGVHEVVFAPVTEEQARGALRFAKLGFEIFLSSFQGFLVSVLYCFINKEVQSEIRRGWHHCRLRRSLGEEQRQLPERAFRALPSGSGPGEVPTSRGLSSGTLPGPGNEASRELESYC
Method: (§1) The binding buffer contains 25 mM HEPES, pH 7.4, 2.5 mM CaCl₂, 1 mM MgCl₂, 0.1% (w/v) bacitracin, 0.003% (w/v) TWEEN®-20, and Roche Complete™ Protease Inhibitors without EDTA. […] Plates are sealed and mixed on a plate shaker (setting 6) for 1 minute and read with a PerkinElmer Trilux MicroBeta® scintillation counter after 2.5 to 12 hours of incubation/settling time at room temperature.
(§2) Data are analyzed using four-parameter (curve maximum, curve minimum, IC₅₀, Hill slope) nonlinear regression routines (Genedata Screener, version 12.0.4, Genedata AG, Basal, Switzerland). […] Values for Kᵢ are reported as the geometric mean, with error expressed as the standard error of the mean (SEM) and n is equal to the number of independent replicates (determined in assays performed on different days). Geometric Means are calculated as follows: […]
Binder B1 has a Ki of 0.0761 nM.
For B2, the Ki was 0.0296 nM.
B3 gave a Ki of 0.0759 nM.
B4 gave a Ki of 0.077 nM.
B5 gave a Ki of 0.234 nM.
With B6 the Ki was 0.163 nM.
For B7, the Ki was 0.0608 nM.
B8 was tested, and the Ki was 0.0573 nM.
In the case of B9, the Ki is reported as 0.0245 nM.

These binders were tested against T2, human glucagon receptor (human, UniProt P47871 26-477) (assay: SPA competition vs [125I]-Gcg, hGcgR membranes).
T2 construct: whole, on cells; also called hGCGR; hGcgR
T2 sequence (P47871 26-477): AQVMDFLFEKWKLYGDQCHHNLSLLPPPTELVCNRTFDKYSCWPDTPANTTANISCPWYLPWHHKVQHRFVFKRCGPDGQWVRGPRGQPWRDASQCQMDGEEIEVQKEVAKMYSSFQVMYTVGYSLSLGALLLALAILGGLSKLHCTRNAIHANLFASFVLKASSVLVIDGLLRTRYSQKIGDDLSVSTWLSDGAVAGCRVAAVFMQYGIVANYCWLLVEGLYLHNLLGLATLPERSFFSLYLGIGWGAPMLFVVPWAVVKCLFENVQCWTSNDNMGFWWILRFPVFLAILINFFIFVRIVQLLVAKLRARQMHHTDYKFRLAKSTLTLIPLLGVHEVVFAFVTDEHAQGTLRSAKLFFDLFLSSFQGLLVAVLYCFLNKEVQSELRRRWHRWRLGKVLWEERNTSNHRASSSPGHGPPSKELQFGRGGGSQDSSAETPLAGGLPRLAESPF
Method: as §1, with “4-(2-hydroxyethyl)-1-piperazineethanesulfonic acid (HEPES),” for “HEPES,”, “MgCh,” for “MgCl₂,”, “bacitracin (Research Products),” for “bacitracin,”, “Polyoxyethylenesorbitan monolaurate (TWEEN®-20),” for “TWEEN®-20,”, “after” for “after 2.5 to”
Data are analyzed using four-parameter (curve maximum, curve minimum, IC₅₀, Hill slope) nonlinear regression routines (Genedata Screener, version 12.0.4, Genedata AG, Basal, Switzerland). […] Values for Kᵢ are reported as the geometric mean, with error expressed as the standard error of the mean (SEM) and n is equal to the number of independent replicates (determined in assays performed on different days).
Binder B1 has a Ki of 217 nM.
B2 showed a Ki of 42 nM.
In the case of B3, the Ki is reported as 458 nM.
B4 was tested, and the Ki was 868 nM.
B5 gave a Ki of 412 nM.
With B6 the Ki was 223 nM.
B7 was tested, and the Ki was 174 nM.
B8 showed a Ki of 196 nM.
Work on B9 yielded a Ki of 345 nM.

What follows are binders tested against T3, human GLP-1 receptor (human, UniProt P43220 24-463) (assay: SPA competition vs [125I]-GLP-1, hGLP-1R membranes).
T3 construct: whole, on cells; also called hGLP-1R; human glucagon-like peptide-1 receptor
Method: The binding buffer contains 25 mM HEPES, pH 7.4, 2.5 mM CaCl₂, 1 mM MgCl₂, 0.1% (w/v) bacitracin, 0.003% (w/v) TWEEN®-20, and Roche Complete™ Protease Inhibitors without EDTA.
as §2
B1 gave a Ki of 29 nM.
With B2 the Ki was 0.876 nM.
Binder B3 has a Ki of 2.02 nM.
In the case of B4, the Ki is reported as 1.38 nM.
In the case of B5, the Ki is reported as 1.69 nM.
Work on B6 yielded a Ki of 1.6 nM.
With B7 the Ki was 0.803 nM.
B8 showed a Ki of 1.21 nM.
Binder B9 has a Ki of 0.198 nM.

Source: patent publication US20230265151A1, “GIP/GLP1 CO-AGONIST COMPOUNDS” (priority 2020, published 2023)
